Substitutions are numbered along the chain they refer to. In names and notes the source's numbering stands.
B1: NADPH-dependent thioredoxin reductase C (NTRC), endogenous in wild-type Arabidopsis leaves (enzyme, UniProt O22229 68-529, looked up)
chain: ATANSPSSSSSGGEIIENVVIIGSGPAGYTAAIYAARANLKPVVFEGYQMGGVPGGQLMTTTEVENFPGFPDGITGPDLMEKMRKQAERWGAELYPEDVESLSVTTAPFTVQTSERKVKCHSIIYATGATARRLRLPREEEFWSRGISACAICDGASPLFKGQVLAVVGGGDTATEEALYLTKYARHVHLLVRRDQLRASKAMQDRVINNPNITVHYNTETVDVLSNTKGQMSGILLRRLDTGEETELEAKGLFYGIGHSPNSQLLEGQVELDSSGYVLVREGTSNTSVEGVFAAGDVQDHEWRQAVTAAGSGCIAALSAERYLTSNNLLVEFHQPQTEEAKKEFTQRDVQEKFDITLTKHKGQYALRKLYHESPRVILVLYTSPTCGPCRTLKPILNKVVDEYNHDVHFVEIDIEEDQEIAEAAGIMGTPCVQFFKNKEMLRTISGVKMKKEYREFIEANK
notes: NTRC of Arabidopsis thaliana (At2g41680), mature chloroplast protein without the putative transit peptide of 67 amino acids (ChloroP); calculated mass of mature NTRC 50890 Da, band of about 50 kDa; printed residue numbers count on the precursor with the transit peptide; The cleavage site of the transit peptide is only a ChloroP prediction (67 amino acids); also called plastid-localized …
B2: full-length NTRC with C217S/C220S in the NTRd active site (OE-SAIS) (enzyme, Arabidopsis thaliana, UniProt O22229 68-529, looked up)
chain: B1 chain with C150S, C153S
notes: signal peptide in the construct (chloroplast transit peptide, putative 67 amino acids, ChloroP); full-length NTRC of Arabidopsis thaliana (At2g41680) with both redox cysteines of the NTRd motif CAIC changed to serine; in the leaf extract it runs as the mature protein of about 50 kDa; source: transgenic Arabidopsis (ntrc knockout background, CaMV 35S promoter, pGWR8), soluble leaf extract
B3: full-length NTRC with C454S/C457S in the TRXd active site (OE-SGPS) (enzyme, Arabidopsis thaliana, UniProt O22229 68-529, looked up)
chain: B1 chain with C387S, C390S
notes: signal peptide in the construct (chloroplast transit peptide, putative 67 amino acids, ChloroP); full-length NTRC of Arabidopsis thaliana (At2g41680) with both redox cysteines of the TRXd motif CGPC changed to serine; in the leaf extract it runs as the mature protein of about 50 kDa; also called NTRC-SGPS; source: transgenic Arabidopsis (ntrc knockout background, CaMV 35S promoter, pGWR8), …

Molecular target: the molecule itself
Test: SDS-PAGE of unheated samples with Western blot; soluble leaf proteins extracted in 50 mM HEPES, 5 mM NaCl, 10 mM MgCl2 with or without 2 mM DTT; solubilised in SDS buffer with or without mercaptoethanol and kept on ice (0°C), not heated; 10% acrylamide gel; blot with anti-NTRC or anti-NTRB antibody

B1 was tested. Which “stoichiometry N” value did it give?
Its value is 2.

With B2 as the protein, how does the “stoichiometry N” value read?
Its value is 2.

With B3 as the protein, how does the “stoichiometry N” value read?
Its value is 2.

From article PMC3792407, “Overexpression of chloroplast NADPH-dependent thioredoxin reductase in Arabidopsis enhances leaf growth and elucidates in vivo function of reductase and thioredoxin domains” (Frontiers in Plant Science, 2013)
